According to patent US20250027068:
Numbering of substitutions follows the chain as printed.

B1: PRT-318 (protein)
chain: MTITSVWTKGVTPPTPEDFRYNNEDVLHAPYVANQGWYDITKTFDGKDNLLCGAATAGNMLHWWFDQNKEEIERYLKKHPEKQKIIFNNQEWFDVKAAIDTKDSQTNSKLFDYFRDKAFPNLSARQLGVMPDLVLDMFINGYYLNLGKTQSTDVNRPYQDKDKRGGIFDAVFTRGDQTTLLTARHDLKNKGLNEISDLIKQELTEGKALALSHTYANVRINHVINLWGADFDAEGNLIAIYVTDSDANASIGMKKYFVGVNANGKVAISAKKIEGDNIGAQVLGLFTLSLGQDIWQKLS
B2: PRT-326 (protein)
chain: B1 chain with Y21E, N88G, W92L, N236E, A249P, V260R, L290T, I294Q
B3: PRT-310 (protein)
chain: MQITSVWTKGVTPLTPEQFRENNEDVIHAPYLAHQGWYDITKAFDGKDNLLCGAATAGNMLHWWFDQNKTEIEAYLSKHPEKQKIIFNNQELFDLKAAIDTKDSQTNSQLFDYFRDKAFPNLSARQLGVMPDLVLDMFINGYYLNVFKTQSTDVNRPYQDKDKRGGIFDAVFTRGDQTTLLTARHDLKNKGLNDISTIIKQELTEGRALALSHTYANVSISHVINLWGADFDAEGNLEAIYVTDSDANASIGMKKYFVGRNAHGHVAISAKKIEGENIGAQVLGLFTLSSGKDQWQKLS
B4: PRT-294 (protein)
chain: MVTSVWTKGVTPPADFTQGEDVFHAPYDANQGWYDITKTFNGKDDLLCGAATAGNMLHWWFDQNKEYIEAYLKKHPEKQKIMFGDQELLDVRKAINTKGSQKNSELFNYFRDKAFPNLSARRLGVMPDLVLDMFINGYYLNVTKTQTTDVNRTYQEKDKRGGIFDAVFTRGDQSKLLTSRHDFKEKGLKEISDLIKQELTEGKALGLSHTYANVRISHVINLWGADFDSDGNLKAIYVTDSDSNASIGMKKYGVGVNSAGKVAISAKEIKEDNIGAQVLGLFTLSTGQDIWNQTN
B5: PRT-303 (protein)
chain: B4 chain with A14T, T17I, Q18K, N30G
B6: PRT-295 (protein)
chain: B4 chain with G253F, A259S
B7: PRT-302 (protein)
chain: B4 chain with A14T, T17I, Q18K, D28K, N30G, I216L, S217N

Target: pooled human IgG (human IgG1,2,3 and 4)

Row | Protein | Enzyme Activity Endpoint Assay (purified): Fab'2 [ng/µL] | Enzyme Activity Endpoint Assay (purified): Fc [ng/µL] | Enzyme Activity Endpoint Assay (purified): IgG [ng/µL] | Enzyme Activity Endpoint Assay (purified): scIgG [ng/µL]
1 | B1 | 641 | 365 | 110 | 100
2 | B2 | 588 | 429 | 458 | 0
3 | B3 | 1220 | 488 | 0 | 0
4 | B4 | 651 | 456 | 506 | 5
5 | B5 | 1080 | 482 | 0 | 0
6 | B6 | 529 | 398 | 446 | 0
7 | B7 | 1130 | 461 | 0 | 0
